Laboratory results reported in patent US20070087966A1.

Biological target: rat PRL receptor (PRL-R) on trigeminal ganglia neurons (rat) (UniProt P05710)
Test: cell-based or functional assay

Chain of rat PRL receptor (PRL-R) on trigeminal ganglia neurons (rat) (P05710 20-610): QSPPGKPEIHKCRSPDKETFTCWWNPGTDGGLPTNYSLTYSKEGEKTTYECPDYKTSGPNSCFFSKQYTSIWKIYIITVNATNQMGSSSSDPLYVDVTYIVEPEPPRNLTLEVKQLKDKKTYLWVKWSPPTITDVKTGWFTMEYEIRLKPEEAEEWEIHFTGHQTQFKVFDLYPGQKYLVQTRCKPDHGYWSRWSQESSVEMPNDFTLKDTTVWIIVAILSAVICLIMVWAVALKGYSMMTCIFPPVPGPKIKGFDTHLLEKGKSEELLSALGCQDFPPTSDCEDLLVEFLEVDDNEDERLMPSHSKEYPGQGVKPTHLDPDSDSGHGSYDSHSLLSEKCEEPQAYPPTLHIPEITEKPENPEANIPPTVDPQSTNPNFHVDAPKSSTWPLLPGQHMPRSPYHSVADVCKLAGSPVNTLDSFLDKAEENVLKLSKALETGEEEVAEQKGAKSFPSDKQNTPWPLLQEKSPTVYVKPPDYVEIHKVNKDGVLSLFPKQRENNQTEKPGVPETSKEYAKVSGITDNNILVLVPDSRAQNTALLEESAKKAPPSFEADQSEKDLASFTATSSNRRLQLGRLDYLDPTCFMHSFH

Substance	EC50 of sensitization of capsaicin-induced currents (Icap) in TG neurons from naive female rats	TRPV1 phosphorylation (32P incorporation) in TG neurons from intact female rats, PRL 40 nM for 10 min	capsaicin-evoked Ca2+ influx in TG neurons from intact female rats (PRL 40 nM, 10 min)	reduction of the PRL effect on Icap (G129R-PRL 16 nM with rPRL 4 nM)
Ovine PRL [oPRL-21, BIO] (from UniProt P01240 31-229) (ligand)	0.27 nM	150%	71%	
G129R-hPRL (ligand)				40%
